Experimental data as given in the supplement of paper PMC9876800.

Tested on: peptide library, one residue held at a place counted from the S/T acceptor
Test: relative phosphorylation of the sub-library (ratio to the mean residue at this position); higher = residue favoured
Details: human
In short: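 Human or orthologue kinase constructs, purified and recombinant, were incubated under kinase-specific conditions in 384-well plates with biotinylated degenerate peptide sub-libraries. Each sub-library fixed one residue at one position around a central Ser/Thr. Incubations lasted 90 min with peptides at 50 μM and 50 μM ATP spiked with γ-32P-ATP, after which spots on streptavidin membranes were phosphorimaged and quantified by densitometry. Relative sub-library phosphorylation is a ratio to the mean residue at that position.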

LRRK2, construct: aa960-end, sequence (Q5S007 960-2527, looked up): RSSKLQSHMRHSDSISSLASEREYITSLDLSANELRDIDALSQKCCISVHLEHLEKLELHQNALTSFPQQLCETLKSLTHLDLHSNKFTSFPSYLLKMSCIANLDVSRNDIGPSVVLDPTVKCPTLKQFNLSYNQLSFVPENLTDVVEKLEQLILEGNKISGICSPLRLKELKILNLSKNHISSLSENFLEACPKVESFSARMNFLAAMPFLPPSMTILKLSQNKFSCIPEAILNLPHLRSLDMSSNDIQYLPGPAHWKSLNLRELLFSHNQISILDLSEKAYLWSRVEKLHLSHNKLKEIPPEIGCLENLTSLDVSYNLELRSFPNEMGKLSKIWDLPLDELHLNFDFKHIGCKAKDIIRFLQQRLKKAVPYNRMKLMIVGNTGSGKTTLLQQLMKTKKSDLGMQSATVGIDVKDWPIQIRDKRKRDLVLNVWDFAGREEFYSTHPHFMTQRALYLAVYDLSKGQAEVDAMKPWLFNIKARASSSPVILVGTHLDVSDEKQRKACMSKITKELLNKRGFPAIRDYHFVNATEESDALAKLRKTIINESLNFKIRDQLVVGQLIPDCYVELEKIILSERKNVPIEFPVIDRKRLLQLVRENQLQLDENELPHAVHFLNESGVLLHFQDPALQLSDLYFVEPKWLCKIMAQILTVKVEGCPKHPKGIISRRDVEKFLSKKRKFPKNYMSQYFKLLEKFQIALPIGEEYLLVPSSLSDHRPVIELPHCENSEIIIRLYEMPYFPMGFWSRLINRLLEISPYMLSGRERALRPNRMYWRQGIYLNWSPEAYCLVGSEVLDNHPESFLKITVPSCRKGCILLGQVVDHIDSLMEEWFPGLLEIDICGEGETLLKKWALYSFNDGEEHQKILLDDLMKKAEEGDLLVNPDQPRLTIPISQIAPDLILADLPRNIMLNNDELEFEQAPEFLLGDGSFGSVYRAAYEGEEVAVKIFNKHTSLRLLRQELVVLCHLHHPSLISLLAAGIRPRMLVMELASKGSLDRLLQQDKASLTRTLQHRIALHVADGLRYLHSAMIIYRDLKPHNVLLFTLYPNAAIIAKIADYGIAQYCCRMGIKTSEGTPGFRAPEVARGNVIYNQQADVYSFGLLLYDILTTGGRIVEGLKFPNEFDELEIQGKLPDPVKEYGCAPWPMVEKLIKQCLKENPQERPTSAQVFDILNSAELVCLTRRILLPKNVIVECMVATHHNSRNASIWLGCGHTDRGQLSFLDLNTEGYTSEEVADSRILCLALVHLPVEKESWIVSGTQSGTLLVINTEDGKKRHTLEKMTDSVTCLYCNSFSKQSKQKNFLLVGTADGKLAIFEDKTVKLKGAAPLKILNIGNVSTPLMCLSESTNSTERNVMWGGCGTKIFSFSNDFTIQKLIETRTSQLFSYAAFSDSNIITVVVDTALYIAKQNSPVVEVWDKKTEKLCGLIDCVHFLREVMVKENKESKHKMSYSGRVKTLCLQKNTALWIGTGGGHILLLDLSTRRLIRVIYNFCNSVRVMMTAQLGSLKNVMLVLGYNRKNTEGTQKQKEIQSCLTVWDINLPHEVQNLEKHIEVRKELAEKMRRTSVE
IRAK4, construct: aa104-end, sequence (Q9NWZ3 104-460, looked up): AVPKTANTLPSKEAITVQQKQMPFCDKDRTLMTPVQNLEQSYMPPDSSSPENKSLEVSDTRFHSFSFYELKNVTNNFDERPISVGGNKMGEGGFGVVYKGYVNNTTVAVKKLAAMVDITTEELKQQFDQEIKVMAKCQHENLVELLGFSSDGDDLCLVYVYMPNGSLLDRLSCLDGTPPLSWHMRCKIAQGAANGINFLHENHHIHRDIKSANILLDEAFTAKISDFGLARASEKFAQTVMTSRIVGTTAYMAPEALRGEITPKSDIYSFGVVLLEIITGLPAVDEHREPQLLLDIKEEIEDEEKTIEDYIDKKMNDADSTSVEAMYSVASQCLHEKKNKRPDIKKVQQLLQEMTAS

IRAK4, construct: aa104-end (from UniProt Q9NWZ3)
relative phosphorylation
Details | at +1 | at +2 | at +3 | at +4 | at -1 | at -2 | at -3 | at -4 | at -5
A fixed | 1 | 0.837 | 0.672 | 0.783 | 0.78 | 1.05 | 0.954 | 1.13 | 1.15
D fixed | 0.163 | 0.147 | 0.24 | 0.423 | 0.303 | 0.404 | 0.555 | 0.603 | 0.602
E fixed | 0.314 | 0.164 | 0.217 | 0.405 | 0.247 | 0.405 | 0.507 | 0.619 | 0.554
F fixed | 1.05 | 1.27 | 1.4 | 0.77 | 0.886 | 0.903 | 0.885 | 0.97 | 0.895
G fixed | 1.13 | 0.45 | 0.698 | 0.935 | 0.636 | 1.31 | 1.36 | 1.22 | 1.29
H fixed | 1.07 | 1.13 | 1.49 | 1.26 | 1.28 | 1.06 | 1.05 | 1.01 | 1.15
I fixed | 0.92 | 1.42 | 1.33 | 0.897 | 0.774 | 0.842 | 0.755 | 0.742 | 0.89
K fixed | 1.94 | 1.43 | 1.56 | 1.89 | 2.3 | 1.23 | 1.53 | 1.46 | 1.52
L fixed | 0.83 | 1.05 | 1.24 | 0.85 | 0.877 | 1.23 | 0.935 | 0.852 | 0.774
M fixed | 1.2 | 1.16 | 1.15 | 1.01 | 1 | 1.57 | 1.03 | 0.907 | 0.837
N fixed | 0.705 | 0.669 | 0.651 | 1.04 | 1 | 1.14 | 1.1 | 1.14 | 0.997
P fixed | 0.139 | 0.406 | 0.252 | 0.961 | 0.666 | 1.04 | 1.11 | 1.12 | 1.22
Q fixed | 1.34 | 0.862 | 0.919 | 0.983 | 0.973 | 0.979 | 0.964 | 0.864 | 0.866
R fixed | 2.58 | 1.99 | 1.76 | 1.83 | 2.31 | 1.34 | 1.65 | 1.5 | 1.59
V fixed | 1.08 | 1.47 | 1.18 | 0.778 | 0.942 | 0.811 | 0.775 | 0.891 | 0.812
W fixed | 0.778 | 1 | 1.11 | 1.25 | 0.755 | 0.814 | 0.968 | 1.01 | 0.881
Y fixed | 0.755 | 1.53 | 1.12 | 0.942 | 1.26 | 0.878 | 0.864 | 0.957 | 0.966
pThr fixed | 0.276 | 0.274 | 0.341 | 0.33 | 0.352 | 0.678 | 0.866 | 0.752 | 0.87
pTyr fixed | 0.203 | 0.177 | 0.441 | 0.323 | 0.276 | 0.545 | 0.65 | 0.539 | 0.763

LRRK2, construct: aa960-end (from UniProt Q5S007)
relative phosphorylation
Details | at +1 | at +2 | at +3 | at +4 | at -1 | at -2 | at -3 | at -4 | at -5
A fixed | 0.869 | 0.867 | 0.909 | 0.908 | 0.82 | 1.05 | 0.893 | 0.985 | 1.01
D fixed | 0.525 | 0.559 | 0.696 | 0.691 | 0.639 | 0.516 | 0.675 | 0.685 | 0.698
E fixed | 0.546 | 0.451 | 0.595 | 0.673 | 0.517 | 0.477 | 0.662 | 0.719 | 0.741
F fixed | 0.874 | 1.17 | 0.884 | 1 | 0.94 | 1.95 | 1.05 | 1.23 | 1.09
G fixed | 0.82 | 0.826 | 0.894 | 0.966 | 1.17 | 1.18 | 1.06 | 1.06 | 0.993
H fixed | 0.814 | 1.02 | 1.16 | 1.18 | 1.15 | 1.18 | 1.08 | 0.949 | 1.04
I fixed | 0.996 | 0.834 | 0.649 | 0.934 | 0.482 | 0.684 | 0.74 | 0.758 | 0.906
K fixed | 1.91 | 1.44 | 1.82 | 1.39 | 1.76 | 0.755 | 1.43 | 1.12 | 1.08
L fixed | 1.15 | 0.786 | 0.755 | 0.865 | 0.812 | 0.943 | 0.85 | 0.842 | 0.858
M fixed | 1.08 | 0.952 | 0.776 | 0.949 | 0.969 | 1.35 | 0.974 | 0.957 | 1.05
N fixed | 0.977 | 0.943 | 1.12 | 1.12 | 1.03 | 0.799 | 0.881 | 0.805 | 0.83
P fixed | 0.941 | 0.724 | 0.822 | 0.794 | 0.88 | 0.943 | 1.01 | 1.1 | 0.989
Q fixed | 1.07 | 0.709 | 0.946 | 1.02 | 0.765 | 0.73 | 0.83 | 0.821 | 0.813
R fixed | 1.88 | 2.91 | 2.3 | 1.45 | 1.97 | 0.994 | 2.07 | 1.4 | 1.37
V fixed | 0.777 | 0.83 | 0.741 | 0.79 | 0.553 | 0.658 | 0.723 | 0.846 | 0.971
W fixed | 0.857 | 0.908 | 1.05 | 1.09 | 0.879 | 1.28 | 0.996 | 1.65 | 1.47
Y fixed | 0.916 | 1.07 | 0.885 | 1.17 | 1.65 | 1.51 | 1.07 | 1.08 | 1.1
pThr fixed | 0.67 | 0.672 | 0.925 | 0.822 | 0.54 | 0.782 | 0.822 | 0.859 | 0.932
pTyr fixed | 0.759 | 0.688 | 0.9 | 0.868 | 0.709 | 0.754 | 0.909 | 0.892 | 1.18

MAP3K2, construct: Full length (from UniProt Q9Y2U5)
relative phosphorylation
Details | at +1 | at +2 | at +3 | at +4 | at -1 | at -2 | at -3 | at -4 | at -5
A fixed | 1.01 | 0.873 | 0.802 | 1.04 | 1.04 | 1.2 | 0.975 | 1.07 | 1.12
D fixed | 0.302 | 0.413 | 0.63 | 0.567 | 1.08 | 1.6 | 1.61 | 1.5 | 1.37
E fixed | 0.296 | 0.344 | 0.477 | 0.691 | 0.935 | 0.953 | 1.53 | 1.43 | 1.16
F fixed | 0.82 | 0.696 | 1.46 | 0.775 | 0.673 | 1.1 | 0.782 | 1.01 | 0.923
G fixed | 0.868 | 0.663 | 0.865 | 0.981 | 1.41 | 1.27 | 1.65 | 1.23 | 1.22
H fixed | 0.954 | 2.2 | 1.06 | 0.983 | 1.36 | 1.1 | 0.891 | 1.02 | 1.06
I fixed | 1.59 | 0.632 | 1.09 | 0.877 | 0.549 | 0.82 | 0.608 | 0.73 | 0.828
K fixed | 0.721 | 1.51 | 1.09 | 1.9 | 1.19 | 0.765 | 0.988 | 0.946 | 1.07
L fixed | 1.29 | 0.694 | 1.16 | 0.918 | 0.904 | 0.704 | 0.698 | 0.749 | 0.743
M fixed | 1.82 | 1.02 | 1.1 | 0.947 | 1.11 | 0.866 | 0.937 | 0.898 | 0.869
N fixed | 0.614 | 0.902 | 0.914 | 0.703 | 1.17 | 0.829 | 1.08 | 0.96 | 0.883
P fixed | 0.409 | 0.403 | 0.574 | 1.25 | 0.643 | 0.838 | 1.03 | 1.02 | 0.992
Q fixed | 1.02 | 1 | 0.905 | 1.12 | 1.11 | 0.853 | 0.817 | 0.793 | 0.751
R fixed | 1.09 | 1.94 | 1.32 | 1.68 | 1.39 | 0.757 | 1.18 | 0.978 | 0.95
V fixed | 1.46 | 0.828 | 0.856 | 0.816 | 0.726 | 0.979 | 0.698 | 0.849 | 1.02
W fixed | 1.81 | 0.986 | 1.51 | 0.909 | 0.662 | 0.919 | 0.747 | 0.952 | 1.08
Y fixed | 0.926 | 1.89 | 1.2 | 0.853 | 1.04 | 1.46 | 0.778 | 0.868 | 0.959
pThr fixed | 0.643 | 0.47 | 0.597 | 0.761 | 0.708 | 1.3 | 1.91 | 1.23 | 1.59
pTyr fixed | 0.42 | 0.412 | 0.645 | 0.546 | 1.08 | 2.07 | 1.3 | 1 | 1.21

MAP3K3, construct: Full length (from UniProt Q99759)
relative phosphorylation
Details | at +1 | at +2 | at +3 | at +4 | at -1 | at -2 | at -3 | at -4 | at -5
A fixed | 0.713 | 0.684 | 0.711 | 0.953 | 0.837 | 0.924 | 0.739 | 0.897 | 0.956
D fixed | 0.304 | 0.643 | 0.767 | 0.758 | 1.28 | 1.65 | 1.39 | 1.38 | 1.12
E fixed | 0.322 | 0.539 | 0.758 | 1.04 | 1.01 | 0.958 | 1.37 | 1.23 | 1.01
F fixed | 1.32 | 0.884 | 1.38 | 0.916 | 0.902 | 1.09 | 0.946 | 0.955 | 1.11
G fixed | 0.603 | 0.488 | 0.904 | 0.904 | 1.25 | 0.969 | 1.33 | 0.913 | 0.916
H fixed | 0.779 | 2.55 | 1.03 | 0.859 | 1.24 | 0.984 | 0.918 | 0.982 | 1.13
I fixed | 1.77 | 0.745 | 1.01 | 0.961 | 0.747 | 1.02 | 0.876 | 0.892 | 0.869
K fixed | 0.516 | 1.42 | 1.19 | 1.7 | 1.18 | 0.591 | 0.998 | 1.1 | 1.15
L fixed | 1.49 | 0.808 | 1.2 | 0.821 | 0.922 | 0.794 | 0.851 | 0.93 | 0.895
M fixed | 1.74 | 1.05 | 1.11 | 0.953 | 0.943 | 1.01 | 0.902 | 1.05 | 0.944
N fixed | 0.48 | 1.03 | 0.992 | 0.962 | 1.3 | 0.932 | 1.04 | 1.01 | 1.03
P fixed | 0.34 | 0.255 | 0.361 | 0.982 | 0.482 | 0.728 | 0.723 | 0.736 | 0.744
Q fixed | 0.686 | 0.898 | 0.75 | 1.07 | 0.834 | 0.838 | 0.77 | 0.741 | 0.842
R fixed | 0.796 | 1.67 | 1.15 | 1.35 | 1.54 | 0.915 | 1.28 | 1.09 | 1.05
V fixed | 1.43 | 0.841 | 0.861 | 0.734 | 0.684 | 1.13 | 0.971 | 0.916 | 0.925
W fixed | 2.59 | 0.994 | 1.57 | 1.02 | 0.849 | 1.15 | 0.981 | 1.07 | 1.21
Y fixed | 1.11 | 1.5 | 1.26 | 1.02 | 1.01 | 1.31 | 0.912 | 1.1 | 1.08
pThr fixed | 1.12 | 1.39 | 0.824 | 1.37 | 1.23 | 2.17 | 2.37 | 1.82 | 2.48
pTyr fixed | 0.626 | 0.691 | 1.06 | 0.783 | 1.56 | 2.52 | 1.7 | 1.02 | 1.63
